Data: patent publication US20240109974A1 (SHANDONG SIMCERE BIOPHARMACEUTICAL, published 2024)

T1: Cynomolgus TNFR2-His (Sino 90102-C08H) (cynomolgus monkey, UniProt A0A2K5VET2 132-366)
T1 construct: Bought protein; also called cynomolgus monkey TNFR2; recombinant cynomolgus monkey TNFR2 protein; not shown: His tag
T1 sequence: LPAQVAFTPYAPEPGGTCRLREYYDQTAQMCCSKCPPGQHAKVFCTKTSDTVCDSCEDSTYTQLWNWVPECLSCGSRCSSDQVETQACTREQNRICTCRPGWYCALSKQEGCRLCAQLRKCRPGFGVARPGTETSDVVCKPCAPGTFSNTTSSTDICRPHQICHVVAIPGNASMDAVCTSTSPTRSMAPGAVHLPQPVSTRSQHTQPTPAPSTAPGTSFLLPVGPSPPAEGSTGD

T2: human TNFR2 on the surface of CHO-TNFR2 cells (human, UniProt P20333 23-461)
T2 construct: whole, on cells
T2 sequence (looked up): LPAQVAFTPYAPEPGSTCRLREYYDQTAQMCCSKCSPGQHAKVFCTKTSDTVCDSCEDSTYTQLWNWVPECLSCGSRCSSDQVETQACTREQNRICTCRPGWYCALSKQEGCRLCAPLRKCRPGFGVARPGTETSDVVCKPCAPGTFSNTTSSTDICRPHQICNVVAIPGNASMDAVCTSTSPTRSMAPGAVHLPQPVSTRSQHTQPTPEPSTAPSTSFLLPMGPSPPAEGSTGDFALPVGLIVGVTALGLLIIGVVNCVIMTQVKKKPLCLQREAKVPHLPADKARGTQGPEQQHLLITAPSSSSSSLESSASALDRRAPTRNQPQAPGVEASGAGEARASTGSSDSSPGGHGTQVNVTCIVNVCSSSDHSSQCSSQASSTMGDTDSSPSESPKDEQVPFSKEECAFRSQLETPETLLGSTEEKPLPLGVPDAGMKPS


Experiments:
[1] = target: T1, Cynomolgus TNFR2-His (Sino 90102-C08H); experiment: ELISA, cynomolgus TNFR2-His coated; EC50 against 001-WT
Description: (§1) The test humanized antibody against TNFR2 (as described in Example 1, the antibody was comprised of variable regions linked to IgG-Fc; the WT chimeric antibody also adopted the IgG-Fc structure) was subjected to 3.33-fold gradient dilution, loaded with 100 μl/well, and incubated with shaking at room temperature for 1.5 hours. The plate was washed, and then a working solution of murine anti-human IgG Fc-HRP (diluted at 1:10000) was added, loaded with 100 μl/well, and incubated with shaking at room temperature for 1.0 hour. The plate was washed again, and then the substrate TMB of HRP was added to develop colour. A stop solution was added to stop the reaction, and then a microplate reader (MD 13) was used to read the absorbance value. The binding curve of an antibody was drawn with antibody concentration as the abscissa and corresponding OD value as the ordinate, and fitted with four parameters (GraphPad Prism9) to calculate the EC50 value. The smaller the EC50 value, the stronger the binding ability of an antibody to human/cynomolgus monkey TNFR2. The binding effect of a humanized antibody was normalized to its corresponding human-murine chimeric antibody WT (see SEQ ID NOs: 38-43 for the sequence). The higher the percentage value, the better the binding effect of the humanized antibody. The results of binding of an anti-TNFR2 antibody to a human TNFR2 protein are shown in FIG. 1 and Table 4, and the results of binding of an anti-TNFR2 antibody to cynomolgus monkey TNFR2 are shown in FIG. 2 and Table 4.

[2] = target: T2, human TNFR2 on the surface of CHO-TNFR2 …; experiment: competition flow cytometry on CHO-TNFR2 cells, competitor TNFα-biotin; IC50 against 001-WT
Description: CHO stable cells highly expressing human TNFR2 were used for the experiment (the same as CHO-TNFR2 in Example 4). The CHO-TNFR2 cells were digested, washed twice with DPBS, then stained with Live/Dead (L/D) (20 minutes at room temperature), and plated at a density of 1×10⁵ cells/50 μl/well. A test anti-TNFR2 antibody was diluted to 6 μg/ml with a staining buffer as the starting concentration: the antibody was subjected to 3.33-fold gradient dilution, with a total of 7 concentration points. The diluted antibody was added to the plated cells at 50 μl/well, and the mixture was mixed well by gentle pipetting, and incubated at 4° C. for 30 minutes. Then the diluted 100 ng/ml of human TNFα-biotin was added at 100 μl/well, and the mixture was mixed well by gentle pipetting, and then incubated at 4° C. for 30 minutes. The mixture was washed twice with a staining buffer, and then 0.12 μg/ml PE-streptavidin (BioLegend, Cat #405204) was added at 100 μl/well; the resulting mixture was incubated at 4° C. for 30 minutes. The mixture was washed twice with a staining buffer, and then 150 μl of staining buffer was added to resuspend the cells; signals were detected by a flow cytometer (Thermo Attune NxT). The inhibitory curve of an antibody was drawn with antibody concentration as the abscissa and corresponding MFI value as the ordinate, and fitted with four parameters (GraphPad Prism9) to calculate the IC50 value. The smaller the IC50 value, the stronger the ability of an antibody to inhibit the binding of human TNFα to human TNFR2. The blocking effect of a humanized antibody was normalized to its corresponding human-murine chimeric WT antibody. The higher the percentage value, the better the inhibitory effect of the humanized antibody.

[3] = target: T1, Cynomolgus TNFR2-His (Sino 90102-C08H); experiment: ELISA, cynomolgus TNFR2-His coated; EC50 against 219-WT
Description: as §1

| % Relative activity (WT antibody/test antibody) [1] [%] | % Relative activity (WT antibody/test antibody) [2] [%] | % Relative activity (WT antibody/test antibody) [3] [%] | Binder |
| --- | --- | --- | --- |
| 105 | 86.2 | – | 001-Hu5 (antibody, V domains shown, Humanized form of #001; also called VH1 + VL4) VH: EVQLVESGGGLVQPGGSLRLSCAASGFAFSTYDLSWVRQAPGKGLEWVAYINNGGISTYYSDTVKGRFTISRDNAKNTLYLQMNSLRAEDTAVYYCVRGPFYGSANYFDYWGQGTLVTVSS VL: DIQMTQSPSSLSASVGDRVTITCRTSESIYSNLPWYQQKPGKSPKLLVYDATKLAEGVPSRFSGSGSGTDYTLTISSLQPEDFATYYCQHFWVTPWTFGQGTKVEIK |
| 108 | 98.3 | – | 001-Hu1 (antibody, V domains shown, Humanized form of #001; also called VH1 + VL1) VH: EVQLVESGGGLVQPGGSLRLSCAASGFAFSTYDLSWVRQAPGKGLEWVAYINNGGISTYYSDTVKGRFTISRDNAKNTLYLQMNSLRAEDTAVYYCVRGPFYGSANYFDYWGQGTLVTVSS VL: DIQMTQSPSSLSASVGDRVTITCRTSESIYSNLPWYQQKPGKAPKLLLYDATKLAEGVPSRFSGSGSGTDYTLTISSLQPEDFATYYCQHFWVTPWTFGQGTKVEIK |
| 107 | 84.3 | – | 001-Hu2 (antibody, V domains shown, Humanized form of #001; also called VH2 + VL2) VH: EVQLVESGGGLVQPGGSLRLSCAASGFAFSTYDLSWVRQAPGKGLEWVAYINNGGISTYYSDTVKGRFTISRDNAKNSLYLQMNSLRAEDTAVYYCVRGPFYGSANYFDYWGQGTLVTVSS VL: DIQMTQSPSSLSASVGDRVTITCRTSESIYSNLPWYQQKPGKSPKLLIYDATKLAEGVPSRFSGSGSGTDFTLTISSLQPEDFATYYCQHFWVTPWTFGQGTKVEIK |
| 105 | 100 | – | 001-Hu3 (antibody, V domains shown, Humanized form of #001; also called VH1 + VL3) VH: EVQLVESGGGLVQPGGSLRLSCAASGFAFSTYDLSWVRQAPGKGLEWVAYINNGGISTYYSDTVKGRFTISRDNAKNTLYLQMNSLRAEDTAVYYCVRGPFYGSANYFDYWGQGTLVTVSS VL: DIQMTQSPSSLSASVGDRVTITCRTSESIYSNLPWYQQKPGKAPKLLIYDATKLAEGVPSRFSGSGSGTDYTLTISSLQPEDFATYYCQHFWVTPWTFGQGTKVEIK |
| 106 | 92.3 | – | 001-Hu4 (antibody, V domains shown, Humanized form of #001; also called VH2 + VL4) VH: EVQLVESGGGLVQPGGSLRLSCAASGFAFSTYDLSWVRQAPGKGLEWVAYINNGGISTYYSDTVKGRFTISRDNAKNSLYLQMNSLRAEDTAVYYCVRGPFYGSANYFDYWGQGTLVTVSS VL: DIQMTQSPSSLSASVGDRVTITCRTSESIYSNLPWYQQKPGKSPKLLVYDATKLAEGVPSRFSGSGSGTDYTLTISSLQPEDFATYYCQHFWVTPWTFGQGTKVEIK |
| – | – | 90.4 | 219-Hu3 (antibody, V domains shown, also called VH5 + VL5) VH: QVQLVQSGAEVKKPGSSVKVSCKASGYSFTNYWMNWVRQAPGQGLEWMGMIHPSDTETRLNQNFKDRVTITADKSTSTAYMELSSLRSEDTAVYYCARGEGLGAARSVSMDYWGQGTLVTVSS VL: DIQMTQSPSSLSASVGDRVTITCRASQDISNYLNWYQQKPDGTVKLLIYYTAILHSGVPSRFSGSGSGTDYSLTISSLQPEDFATYFCQQGNTLPWTFGQGTKVEIK |
| – | – | 77.5 | 219-Hu1 (antibody, V domains shown, also called VH3 + VL5) VH: QVQLVQSGAEVKKPGASVKVSCKASGYSFTNYWMNWVRQAPGQRLEWMGMIHPSDTETRLNQNFKDRVTITRDTSASTAYMELSSLRSEDTAVYYCARGEGLGAARSVSMDYWGQGTLVTVSS VL: DIQMTQSPSSLSASVGDRVTITCRASQDISNYLNWYQQKPDGTVKLLIYYTAILHSGVPSRFSGSGSGTDYSLTISSLQPEDFATYFCQQGNTLPWTFGQGTKVEIK |
| – | – | 102 | 219-Hu2 (antibody, V domains shown, also called VH4 + VL5) VH: QVQLVQSGAEVKKPGSSVKVSCKASGYSFTNYWMNWVRQAPGQGLEWMGMIHPSDTETRLNQNFKDKATITADKSTSTAYMELSSLRSEDTAVYYCARGEGLGAARSVSMDYWGQGTLVTVSS VL: DIQMTQSPSSLSASVGDRVTITCRASQDISNYLNWYQQKPDGTVKLLIYYTAILHSGVPSRFSGSGSGTDYSLTISSLQPEDFATYFCQQGNTLPWTFGQGTKVEIK |
| – | – | 93.1 | 219-Hu4 (antibody, V domains shown, also called VH6 + VL5) VH: QVQLVQSGAEVKKPGSSVKVSCKASGYSFTNYWMNWVKQAPGQGLEWIGMIHPSDTETRLNQNFKDKATLTVDKSTSTAYMELSSLRSEDTAVYYCARGEGLGAARSVSMDYWGQGTLVTVSS VL: DIQMTQSPSSLSASVGDRVTITCRASQDISNYLNWYQQKPDGTVKLLIYYTAILHSGVPSRFSGSGSGTDYSLTISSLQPEDFATYFCQQGNTLPWTFGQGTKVEIK |
| – | – | 93.4 | 219-Hu5 (antibody, V domains shown, also called VH7 + VL5) VH: QVQLVQSGAEVKKPGSSVKVSCKASGYSFTNYWMNWVRQAPGQGLEWMGMIHPSDTETRLNQNFKDRVTITVDKSTSTAYMELSSLRSEDTAVYYCARGEGLGAARSVSMDYWGQGTLVTVSS VL: DIQMTQSPSSLSASVGDRVTITCRASQDISNYLNWYQQKPDGTVKLLIYYTAILHSGVPSRFSGSGSGTDYSLTISSLQPEDFATYFCQQGNTLPWTFGQGTKVEIK |
